Source: patent publication US20230265151A1, “GIP/GLP1 CO-AGONIST COMPOUNDS” (priority 2020, published 2023)
Residue numbers refer to the chain shown, from its start. *1 amine or outer side, *2 acyl side, *3 side chain or, on linkers, in order; H or OH if unused. Where no end group is shown, it is not given here. Side-chain parts run from the residue outwards. [ ]: non-standard residue; d: D form. The star is where a group is joined. αMePhe(2-F) = C[C@](N)(Cc1ccccc1F)C(=O)O; γGlu = O=C(O)[C@H](CCC(=O)[*:2])N[*:1]; C14 diacid = O=C(O)CCCCCCCCCCCCC(=O)*; εLys = N[C@@H](CCCCN[*:1])C(=O)[*:2]; αMeY = C[C@](N)(Cc1ccc(O)cc1)C(=O)O; αMeL = CC(C)C[C@](C)(N)C(=O)O; Orn = NCCC[C@H](N)C(=O)O; Dap = NC[C@H](N)C(=O)O; AEEA = NCCOCCOCC(=O)O; Aib = CC(C)(N)C(=O)O

B1: Y-Aib-EGT-αMeF-TSD-4Pal-SI-αMeL-LD-Orn-K((2-[2-(2-Amino-ethoxy)-ethoxy]-acetyl)2-(γ-Glu)-CO-(CH2)12-CO2H)AQ-Aib-EFI-(D-Glu)-αMeF-LIEGGK((2-[2-(2-Amino-ethoxy)-e … (peptide)
peptide: YXEGTXTSDXSIXLDXKAQXEFIXXLIEGGKSSGAPPPS
modifications: Aib2, αMeF6, 4Pal10, αMeL13, Orn16, Aib20, D-Glu24, αMeF25; acylated K17, K31 (groups as in name); C-terminal amide
B2: Y-Aib-EGT-αMeF(2F)-TSD-Bip-SI-αMeL-LD-Orn-K((2-[2-(2-Amino-ethoxy)-ethoxy]-acetyl)2-(γ-Glu)-CO-(CH2)12-CO2H)AQ-Aib-EFI-(D-Glu)-αMeY-LIEGGK((2-[2-(2-Amino-ethoxy … (peptide)
peptide: B1 peptide
modifications: Aib2, αMeF(2F)6, Bip10, αMeL13, Orn16, Aib20, D-Glu24, αMeY25; acylated K17, K31 (groups as in name); C-terminal amide
B3: Y-Aib-EGT-αMeF(2F)-TSD-αMeL-SI-aMeL-LD-Orn-K((2-[2-(2-Amino-ethoxy)-ethoxy]-acetyl)2-(γ-Glu)-CO-(CH2)12-CO2H)AQ-Aib-EFI-(D-Glu)-αMeY-LIEGGK((2-[2-(2-Amino-ethox … (peptide)
peptide: B1 peptide
modifications: Aib2, αMeF(2F)6, αMeL10, αMeL13, Orn16, Aib20, D-Glu24, αMeY25; acylated K17, K31 (groups as in name); C-terminal amide
B4: Y-Aib-EGT-αMeF(2F)-TSDY-aMeS-I-αMeL-LD-Orn-K((2-[2-(2-Amino-ethoxy)-ethoxy]-acetyl)2-(γ-Glu)-CO-(CH2)12-CO2H)AQ-Aib-EFI-(D-Glu)-αMeY-LIEGGK((2-[2-(2-Amino-ethox … (peptide)
peptide: B1 peptide with X10Y, S11X
modifications: Aib2, αMeF(2F)6, αMeS11, αMeL13, Orn16, Aib20, D-Glu24, αMeY25; acylated K17, K31 (groups as in name); C-terminal amide
B5: Y-Aib-EGT-αMeF(2F)-TSDV-Dap-I-αMeL-LD-Orn-K((2-[2-(2-Amino-ethoxy)-ethoxy]-acetyl)2-(γ-Glu)-CO-(CH2)12-CO2H)AQ-Aib-EFIe-αMeY-LIEGGK((2-[2-(2-Amino-ethoxy)-ethox … (peptide)
peptide: Y[Aib]EGT[αMePhe(2-F)]TSDV[Dap]I[αMeL]LD[Orn]K([AEEA-AEEA-γGlu-C14 diacid])AQ[Aib]EFI[dE][αMeY]LIEGGK([AEEA-AEEA-γGlu-C14 diacid])SSGAPPPS-NH2
modifications: N-terminus assumed
SMILES: CC[C@H](C)[C@H](NC(=O)[C@H](CC(C)C)NC(=O)[C@](C)(Cc1ccc(O)cc1)NC(=O)[C@@H](CCC(=O)O)NC(=O)[C@@H](NC(=O)[C@H](Cc1ccccc1)NC(=O)[C@H](CCC(=O)O)NC(=O)C(C)(C)NC(=O)[C@H](CCC(N)=O)NC(=O)[C@H](C)NC(=O)[C@H](CCCCNC(=O)COCCOCCNC(=O)COCCOCCNC(=O)CC[C@H](NC(=O)CCCCCCCCCCCCC(=O)O)C(=O)O)NC(=O)[C@H](CCCN)NC(=O)[C@H](CC(=O)O)NC(=O)[C@H](CC(C)C)NC(=O)[C@](C)(CC(C)C)NC(=O)[C@@H](NC(=O)[C@H](CN)NC(=O)[C@@H](NC(=O)[C@H](CC(=O)O)NC(=O)[C@H](CO)NC(=O)[C@@H](NC(=O)[C@](C)(Cc1ccccc1F)NC(=O)[C@@H](NC(=O)CNC(=O)[C@H](CCC(=O)O)NC(=O)C(C)(C)NC(=O)[C@@H](N)Cc1ccc(O)cc1)[C@@H](C)O)[C@@H](C)O)C(C)C)[C@@H](C)CC)[C@@H](C)CC)C(=O)N[C@@H](CCC(=O)O)C(=O)NCC(=O)NCC(=O)N[C@@H](CCCCNC(=O)COCCOCCNC(=O)COCCOCCNC(=O)CC[C@H](NC(=O)CCCCCCCCCCCCC(=O)O)C(=O)O)C(=O)N[C@@H](CO)C(=O)N[C@@H](CO)C(=O)NCC(=O)N[C@@H](C)C(=O)N1CCC[C@H]1C(=O)N1CCC[C@H]1C(=O)N1CCC[C@H]1C(=O)N[C@@H](CO)C(N)=O
B6: Y-Aib-EGT-αMeF(2F)-TSDV-αMeS-I-αMeL-LD-Orn-K((2-[2-(2-Amino-ethoxy)-ethoxy]-acetyl)2-(γ-Glu)-CO-(CH2)12-CO2H)AQ-Aib-EFI-(D-Glu)-αMeY-LIEGGK((2-[2-(2-Amino-ethox … (peptide)
peptide: B1 peptide with X10V, S11X
modifications: Aib2, αMeF(2F)6, αMeS11, αMeL13, Orn16, Aib20, D-Glu24, αMeY25; acylated K17, K31 (groups as in name); C-terminal amide
B7: Y-Aib-EGT-αMeF(2F)-TSDV-Aib-I-αMeL-LD-Orn-K((εK)-(γ-Glu)-CO-(CH2)12-CO2H)AQ-Aib-EFI-(D-Glu)-αMeY-LIEGGK((εK)-(γ-Glu)-CO-(CH2)12-CO2H)SSGAPPPS-NH2 (peptide)
peptide: Y[Aib]EGT[αMePhe(2-F)]TSDV[Aib]I[αMeL]LD[Orn]K([εLys-γGlu-C14 diacid])AQ[Aib]EFI[dE][αMeY]LIEGGK([εLys-γGlu-C14 diacid])SSGAPPPS-NH2
modifications: N-terminus assumed
SMILES: CC[C@H](C)[C@H](NC(=O)[C@H](CC(C)C)NC(=O)[C@](C)(Cc1ccc(O)cc1)NC(=O)[C@@H](CCC(=O)O)NC(=O)[C@@H](NC(=O)[C@H](Cc1ccccc1)NC(=O)[C@H](CCC(=O)O)NC(=O)C(C)(C)NC(=O)[C@H](CCC(N)=O)NC(=O)[C@H](C)NC(=O)[C@H](CCCCNC(=O)[C@@H](N)CCCCNC(=O)CC[C@H](NC(=O)CCCCCCCCCCCCC(=O)O)C(=O)O)NC(=O)[C@H](CCCN)NC(=O)[C@H](CC(=O)O)NC(=O)[C@H](CC(C)C)NC(=O)[C@](C)(CC(C)C)NC(=O)[C@@H](NC(=O)C(C)(C)NC(=O)[C@@H](NC(=O)[C@H](CC(=O)O)NC(=O)[C@H](CO)NC(=O)[C@@H](NC(=O)[C@](C)(Cc1ccccc1F)NC(=O)[C@@H](NC(=O)CNC(=O)[C@H](CCC(=O)O)NC(=O)C(C)(C)NC(=O)[C@@H](N)Cc1ccc(O)cc1)[C@@H](C)O)[C@@H](C)O)C(C)C)[C@@H](C)CC)[C@@H](C)CC)C(=O)N[C@@H](CCC(=O)O)C(=O)NCC(=O)NCC(=O)N[C@@H](CCCCNC(=O)[C@@H](N)CCCCNC(=O)CC[C@H](NC(=O)CCCCCCCCCCCCC(=O)O)C(=O)O)C(=O)N[C@@H](CO)C(=O)N[C@@H](CO)C(=O)NCC(=O)N[C@@H](C)C(=O)N1CCC[C@H]1C(=O)N1CCC[C@H]1C(=O)N1CCC[C@H]1C(=O)N[C@@H](CO)C(N)=O
B8: Y-Aib-EGT-αMeF(2F)-TSDV-Aib-I-αMeL-LD-Orn-K((2-[2-(2-Amino-ethoxy)-ethoxy]-acetyl)2-(γ-Glu)-CO-(CH2)12-CO2H)AQ-Aib-EFI-(D-Glu)-αMeY-LIEGGK((2-[2-(2-Amino-ethoxy … (peptide)
peptide: Y[Aib]EGT[αMePhe(2-F)]TSDV[Aib]I[αMeL]LD[Orn]K([AEEA-AEEA-γGlu-C14 diacid])AQ[Aib]EFI[dE][αMeY]LIEGGK([AEEA-AEEA-γGlu-C14 diacid])SSGAPPPS-NH2
modifications: N-terminus assumed
SMILES: CC[C@H](C)[C@H](NC(=O)[C@H](CC(C)C)NC(=O)[C@](C)(Cc1ccc(O)cc1)NC(=O)[C@@H](CCC(=O)O)NC(=O)[C@@H](NC(=O)[C@H](Cc1ccccc1)NC(=O)[C@H](CCC(=O)O)NC(=O)C(C)(C)NC(=O)[C@H](CCC(N)=O)NC(=O)[C@H](C)NC(=O)[C@H](CCCCNC(=O)COCCOCCNC(=O)COCCOCCNC(=O)CC[C@H](NC(=O)CCCCCCCCCCCCC(=O)O)C(=O)O)NC(=O)[C@H](CCCN)NC(=O)[C@H](CC(=O)O)NC(=O)[C@H](CC(C)C)NC(=O)[C@](C)(CC(C)C)NC(=O)[C@@H](NC(=O)C(C)(C)NC(=O)[C@@H](NC(=O)[C@H](CC(=O)O)NC(=O)[C@H](CO)NC(=O)[C@@H](NC(=O)[C@](C)(Cc1ccccc1F)NC(=O)[C@@H](NC(=O)CNC(=O)[C@H](CCC(=O)O)NC(=O)C(C)(C)NC(=O)[C@@H](N)Cc1ccc(O)cc1)[C@@H](C)O)[C@@H](C)O)C(C)C)[C@@H](C)CC)[C@@H](C)CC)C(=O)N[C@@H](CCC(=O)O)C(=O)NCC(=O)NCC(=O)N[C@@H](CCCCNC(=O)COCCOCCNC(=O)COCCOCCNC(=O)CC[C@H](NC(=O)CCCCCCCCCCCCC(=O)O)C(=O)O)C(=O)N[C@@H](CO)C(=O)N[C@@H](CO)C(=O)NCC(=O)N[C@@H](C)C(=O)N1CCC[C@H]1C(=O)N1CCC[C@H]1C(=O)N1CCC[C@H]1C(=O)N[C@@H](CO)C(N)=O
B9: Example 198 (peptide)
peptide: B1 peptide with K17I, X24K
modifications: Aib2, αMeF(2F)6, 4Pal10, αMeL13, Orn16, Aib20, K24(Z), αMeY25, K31(Z), C-terminal NH2; Z = (εK)-(εK)-(γ-Glu)-CO-(CH2)12-CO2H
B10: Example 199 (peptide)
peptide: B1 peptide with S11X
modifications: Aib2, αMeF(2F)6, 4Pal10, Dap11, αMeL13, Orn16, K17(Z), Aib20, D-Glu24, αMeY25, K31(Z), C-terminal NH2; Z = AEEA2-(γ-Glu)-CO-(CH2)12-CO2H

Molecular target: human glucagon receptor (human, UniProt P47871 26-477)
Assay: cell-based or functional assay

Binder | cAMP EC50 (1.0% HSA) [nM]
B1 | > 9950
B2 | > 9950
B3 | > 9950
B4 | > 9950

Molecular target: T1, human GIP receptor (human, UniProt P48546 22-466)
T1 sequence (looked up): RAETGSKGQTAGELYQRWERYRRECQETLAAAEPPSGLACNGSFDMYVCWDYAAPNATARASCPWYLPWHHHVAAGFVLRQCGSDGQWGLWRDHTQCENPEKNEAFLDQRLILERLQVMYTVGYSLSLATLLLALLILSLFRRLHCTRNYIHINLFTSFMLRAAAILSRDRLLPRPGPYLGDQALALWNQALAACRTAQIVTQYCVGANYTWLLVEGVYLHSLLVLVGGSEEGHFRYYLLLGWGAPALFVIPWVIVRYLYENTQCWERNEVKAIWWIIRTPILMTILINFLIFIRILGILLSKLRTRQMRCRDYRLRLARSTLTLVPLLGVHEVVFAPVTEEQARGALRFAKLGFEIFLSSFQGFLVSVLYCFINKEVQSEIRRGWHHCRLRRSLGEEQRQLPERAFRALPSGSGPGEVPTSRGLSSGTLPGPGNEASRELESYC
Assay: cell-based or functional assay

Binder | cAMP EC50 (1.0% HSA) [nM] | cAMP Emax (1.0% HSA) [%]
B5 | 13.2 | 80.5
B1 | 2.12 | –
B2 | 6.62 | –
B6 | 16.6 | 81
B3 | 15.8 | –
B4 | 1.51 | 92.4
B7 | 3.62 | –
B8 | 7.05 | –

Molecular target: human GLP-1 receptor (human, UniProt P43220 24-463)
Assay: cell-based or functional assay

Binder | cAMP EC50 (1.0% HSA) [nM] | cAMP Emax (1.0% HSA) [%]
B5 | 25.1 | –
B1 | 118 | –
B2 | 70.5 | –
B6 | 33.7 | 91
B3 | 100 | –
B4 | 20.1 | –
B7 | 26.6 | –
B8 | 20.4 | –

Molecular target: human glucagon-like peptide-1 (GLP-1) receptor (human, UniProt P43220 24-463)
Assay: cell-based or functional assay

Binder | cAMP EC50 [nM] | cAMP Emax [%]
B9 | 0.362 | –
B10 | 3.2 | 96.7

Molecular target: T2, human glucose-dependent insulinotropic polypeptide (GIP) receptor (human, UniProt P48546 22-466)
T2 sequence (looked up): T1 sequence (looked up)
Assay: cell-based or functional assay

Binder | cAMP EC50 [nM] | cAMP Emax [%]
B9 | 0.0269 | 94
B10 | 0.0587 | 96.9

Molecular target: human glucagon receptor (human, UniProt P47871 26-477)
Assay: cell-based or functional assay
Remark: another data set of the same source

Binder | cAMP EC50 [nM]
B9 | > 9950
B10 | > 9950
